The results in this text go back to the nanobody polyreactivity screen of Harvey et al. (2022).

The series is described as follows: yeast display, Sf9 membrane polyspecificity reagent, FACS + sequencing; frameworks hold sequencing errors. Put shortly: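 Nanobodies came from a synthetic yeast display library in Saccharomyces cerevisiae BJ5465, induced with galactose for 36–48 hours and stained for 1 hour at 4 °C with 10% biotinylated, detergent-solubilized Sf9 membrane reagent. Cells were enriched on streptavidin microbeads and then FACS-sorted, with low and high (top ~1%) gates set on anti-HA fluorescence for expression and streptavidin fluorescence for reagent binding. Each polyreactivity label reflects the gate a clone came from. Genes were amplified by colony PCR, sequenced by MiSeq 2 × 250 and filtered by CDR length.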
For the sequence “QVQLVESGGGLVQAGGSLRLSCAASGFIFYSYAMRWYRQDPGQERELVAAISTSGGSSYYADSVKGRFTMSRDNAKNTVYLQMNSLKPEDTAVYYCATLSAFYPFAYDYWGQGTQVTVSS”, the “polyreactivity (PSR sort gate)” value is recorded as “high polyreactivity”.

On to “QVQLVESGGGLVQAGGSLRLSCAASGSIFYVYGMGWYRQAPGKERELVAAITRSGGIKYYADSVKGRFTISRDNAKNTVYLLMNSLKPEDTAVYYCAALSYRYTDKVVYWGQGTQVTVSS”, for which the “polyreactivity (PSR sort gate)” value is “low polyreactivity”.

In the case of “QVQLQESGGGQVQAGGSLRWSCAASGYISTHYFMGWYRQAPGKDREFVAGISNGSITNYADSVKGRFTISRDNARNTVYLQMNSLKPEDTAVYYVAAYQWTYVRFGYWGQGTQVTVSG”, the “polyreactivity (PSR sort gate)” value is “high polyreactivity”.

“QVQLVESGGGLVQAGGSLRLSCAASGLTFWEYAMGWYRQAPGKERELVAAITWGGNTYYADSVKGRFTISRDNAKNTVYLQMNSLKPEDTAVYYCAARGYYLTGGFRRYYYWGQGTQVTVSS”: the “polyreactivity (PSR sort gate)” value is listed as “high polyreactivity”.

In the case of “QVQLVESGGGLVQAGGSLRLSCAASGRIFGLYAMGWYRQAPGKERELVATITRRGGSTYYADSVKGRFTISRDNAKNTVYLQMNSLKPEDTAVYYCNVRTLVQHHSSYSSRYDSWGQGTQVTVSS”, the “polyreactivity (PSR sort gate)” value is on record as “high polyreactivity”.

Regarding “QVQLVESGGGLVQAGGSLRLSCAASGSTFVGYAMGWYRQAPGKERELVADIDSIGGSTYYADSVKRRFTISRDNAKNTVYLQMNSLKPEDTAVYDCAAYQHPGLRTSYEYWGQGTQVTVSS”, the “polyreactivity (PSR sort gate)” value is reported as “low polyreactivity”.

Regarding “QVQLVESGGGLVQAGGSLRLICAASGSTSPYYTRGWYRQAPGKERELVASINESGGSTYYADSVKARFTISRDNAKNTVYLQMHTLKPEDTAGYNCNAEYTTPSYPVYSIDYYWFDYWGQGTQVTVSS”, the “polyreactivity (PSR sort gate)” value is listed as “low polyreactivity”.

Take “QVQLVESGGGLVQAGGSLRLSCAASGRTYVPNAMGWYRQAPGKEREFVAAITSRGGRTFYADSVKGRFTISRDNAKNTVYLQMNSLKPDDTAVYYCAAYRPGFVYGRLDYWGQGTQVTVSS”: the “polyreactivity (PSR sort gate)” value was “high polyreactivity”.

Take “QVQLVDSGGGLVQAGGSLRLSCAASGYSFYFYAMGWYRQAPGKERELVAAITGGGTTSYADSVKGRFTISRDNAKNTVYLQMNSLKPEDTAVYYCNVLFADKSDYWGQGTLVTVSS”: the “polyreactivity (PSR sort gate)” value is reported as “low polyreactivity”.

“QVQLVESGGGLVQAGGSLRLSCAASGSTFYRYAMGWYRQAPGKERELVAAISTSGGRTYYADSVKGRFTISRDNAKNTVYLQMNSLKPEDTAVYYCAAPYQYGYWGQGTQVTVSS”: the “polyreactivity (PSR sort gate)” value was “high polyreactivity”.

“QVQLVESGGGLVQAGGSLRLSCSASGSIFYYKAMGWYRQAPGKERELVAAISYRGTSTYYADSVKGRFTISRDNAKNTVSLQMNSLKPEDTAVYYCAAPALYTSRRYYYWGQGNQVTVSS”: the “polyreactivity (PSR sort gate)” value is given as “high polyreactivity”.

With “QVQLVESGGGLVQAGGSLRLSCAASGLTFYANAMGWYRQAPGKERELVAAITSSGGSTYYADSVKGRFTISRDNAKNTVYLQMNSLKPDDTAVYYCNAYFRPRYGYWGQGTQVTVSS”, the “polyreactivity (PSR sort gate)” value is on record as “high polyreactivity”.

With “QVQLVESGGGLVQAGRSLRLTCAASGRTLGYNAMGWYRQPPGKERELVAAITYSGSRTYYADSVKGRFTISRDNAKNTVYLQMNSLKPEDTAVYYCAAGGYIAYYYYRFDYWGQGTQVTVSS”, the “polyreactivity (PSR sort gate)” value was “high polyreactivity”.

As for “QVQVVESGGGLVQAGGSLRLSCAASGSTFRYYAMGWYRQAPGKERELVAGISKVGGRTYADSVKGRFTISRDNAKYTVYLQMNSLKTEDTAVYYCAADAVRRTPGYDYWGHGTQVTVSS”, the “polyreactivity (PSR sort gate)” value was “high polyreactivity”.

As for “QVQLVESGGGLVQAGGSLRLSCAASGSIFDSKAMGWYRQAPGKERELVAAISQGGDDTYYADSVKGRFTISRDNAKNTVYLQMNSLKPEDTAVYYCAAEFFYITGAYDYWGQGTQVTVSS”, the “polyreactivity (PSR sort gate)” value is on record as “low polyreactivity”.

In the case of “QVQLVESGGGLVQAAGSLRFSWAASRSIFRQYGMGWYRQAHGKERELVARISRRSGTTYYADSVKGRFTISRDYAKNTVYLQMNSLKPEDSAVSYCAAVPGWIHVDYWGQGTQVTVSS”, the “polyreactivity (PSR sort gate)” value is given as “high polyreactivity”.

For “QVQLVESGGGLVKAGGSLRLSCAASGSTSQVNDMGWYRQAPGTERELVGAISSTGDRTYYADSVKGRFTISRDNAKNNVYLQMNSLKPDDTAVYYCANDPFPFPCGDYWGQGTQVTVSS”, the “polyreactivity (PSR sort gate)” value is given as “low polyreactivity”.

As for “QVQLVESGGGLVQAGGSLRLSCAASGFIFTYYAMGWYRQAPGKERELVAVISWSGGTTYYADSVKGRFTISRDNAKNTVYLQMNSLKPEDTAVYYCNADRSLLYSRKIEYDYWGQGTQVTVSS”, the “polyreactivity (PSR sort gate)” value is “low polyreactivity”.

As for “QVQLVESGGGLVQAGGSLRLSCAASGSTSVTNAMGWYRQAPGKEREFFATINYSGTSTYYADSVKGRFTISRDNAKNTVYLQMNSLNPEDTAVYYCYAHDFGFYRFSLPGYDYWGQGTQVTVSS”, the “polyreactivity (PSR sort gate)” value is on record as “low polyreactivity”.

Consider “QVQLVESGGGLVQAGGSLRLSCAASGSTSYFNVMGWYRQAPGKERELVAAISWSGGSTYADSVKGRFTISRDNAKNTVYLQMNSLKPEDTAVYYCNKDYGYVQLRFYGPGYYWGQGTQVTVSS”, for which the “polyreactivity (PSR sort gate)” value was “low polyreactivity”.

Take “QVQLVESGGGLVQAGGSLRLSCAASGRTFPSYVMGWYRQAPGKERELVAAINNGVSTNYADSVKGRYTISRDNAKNTVYLQMNSLNPEDTADYYCAAEVVAQMNYCGQGTQVTVSS”: the “polyreactivity (PSR sort gate)” value is “low polyreactivity”.

In the case of “QVQLVESGGGLVQAGGSLRLSCAASGINFFVYDMGWYRQAPGKERELVAAITWSGDSTYYADSVKGRFTISRDNAKNTVYLQINSLKPVDSAVYYCAAQFDVYYSRQPYDYNRSGYWGQGTQVTVSS”, the “polyreactivity (PSR sort gate)” value is on record as “low polyreactivity”.

For the sequence “QVQLVESGGGLVRAGGSLRLSCAASGSTFDINAMGWYRQAPGKERELVASITFSGGSTYYADSVKGRFTISRDNAKNTVYLQMNSLKPEDTAVYYCNKDEPQFSSYLYSFYPGYDYWGQGTQVTVSS”, the “polyreactivity (PSR sort gate)” value was “low polyreactivity”.

As for “QVQLVESGGGLVQAGGSLRLSCAASGSIFSYYVKGWYRQAPGKERELVAVITDRGGRTYYADSVKGRFTISRDNAKNPVYLQMNSLKPEDTAVYYCNKYIRRYLIYGSWGQGTQVTVSS”, the “polyreactivity (PSR sort gate)” value is given as “high polyreactivity”.

On to “QVQLVESGGGLVQAGGSLRLSCAASGSSFTPNVMGWYRQAPGKERELVAAISQSGGSTFYADSVKGRFTISRDNAKNTVYLQMNSLKPEDTAVYYCATEYYGPVYDLDYDYWGQGTQVTVSS”, for which the “polyreactivity (PSR sort gate)” value is reported as “low polyreactivity”.

For “QVQLVESGGGLVQAGGSLRLSCAASGSTFDPYAMGWYRQAPGKERELVAAITGGGSTNYADSVKGRFTISRDNAKNTVYLQMNSLKPEDTAVYYCAATIPKPYHSGLRLLGQGTQVTVSS”, the “polyreactivity (PSR sort gate)” value is given as “low polyreactivity”.

Turning to “QVQLVESGGVLVQAGGSLRLSCASSLTISYRYAMGWYRTAPGKERELVAAITSGGGTTYYADSVKGRFTISRDNAKNTVYLQMNSMKPEDTAVYYCAKPRARQAFEYWGQGTQVTVSS”, the “polyreactivity (PSR sort gate)” value is reported as “high polyreactivity”.

As for “QVQLVESGGGLVQAGGSLRLSCAASGGTFDVYTMGWYRQAPGKERELVAAIDNGGSTNYADSVKGRFTISRDNAKNTVYLQMNSLQPEDTAVYYCAADEVYLFWGIAEFIYDYWGQGTQVTVSS”, the “polyreactivity (PSR sort gate)” value is on record as “low polyreactivity”.

On to “QVHLVESAVGLVQAGGSLRLSCAASASTFPSYAMGWYRQAPGKERELVAAINSGGGTNYADSVKGRFTISRDNAKNTVYLQMNSLKPEDTAVYYCAKSRYDYTKTEGGYWGQGTQVTVSS”, for which the “polyreactivity (PSR sort gate)” value is recorded as “low polyreactivity”.

Take “QVQLVESGGALVQAGGSLRLSCAASGSIFGEYTMGWYRQAPGKEWELVAAIRSGGDTYYADSVKGRFTLSRDKAKNTVYLQMNSLKPEDTAVYYCNAYWVRHYIMDYWGQGTQVTVSS”: the “polyreactivity (PSR sort gate)” value is “low polyreactivity”.

On to “QVQLVESGGGLVQAGGSLRLSSSASGRISGRNAMGWYRQAPGKERELVAVITRGDTNYADSVKGRFTISRDNAKNTVYLQMNSLKPEDTAVYYCAKEPLASGWGYDYWGQGTQVTVSS”, for which the “polyreactivity (PSR sort gate)” value was “high polyreactivity”.

As for “QVQLVESGGGLVQAGGSLRLSCAASGNTFIPNAMGWSRQAPGKETELVAAIRASGGSTYYADSVKGRFTISRDNAKNTVYLQMNSLKPEDTAVYYCNADIWYKTYDYWGQGTQVTVSS”, the “polyreactivity (PSR sort gate)” value is listed as “low polyreactivity”.

For “QVQLVESGGGLVQAGGSLRLSCAASGRTFGRYARGWYRQAPGKETELVAAIRSGASTYYADSVKGRFTISRDNAKNTVYLQKNSLKPEDTAVYYCAVDTLQGARVTSPSGDYDYWGQGTQVTVSS”, the “polyreactivity (PSR sort gate)” value was “low polyreactivity”.

In the case of “QVQLVESGGGLVQAGGRLRLSCAASGRIFGSYAMGWYRQAPGKERELVAAITFSGVNTYYADSVKGRFTISRDNAKNTVYLQMNRLKPEDTAVYYCAVRGPEAEYDYWGQGTQVTVSS”, the “polyreactivity (PSR sort gate)” value was “high polyreactivity”.

For the sequence “QVQLVESGGGLVQAGRRLRLSCAASGSTFGYYAMGWYRQAPGKERELVAAITSGATTNYADSVKGRFTISRDNAKNTVYLQMNSLKPEDTAVYYCAAGFQTRTPLNEFDNWGQGTQVTVSS”, the “polyreactivity (PSR sort gate)” value is given as “low polyreactivity”.

As for “QVQLVESGGGLVQAGGSLRLSCAASGFTFHNYAMGWYRQAPGKERELVAVIRWRGGSTYYADSVKGRFTISRDNAKNSVYLQMNSLKPEDTAFYYCAKRARGSYYWGYNYWGQGTQVTVSS”, the “polyreactivity (PSR sort gate)” value is “high polyreactivity”.

In the case of “QVQLVESGGGLVQAGGSLRLSCAASGSTFKFYAMGWYRQAPGKERELVASITSSSGPTYYADSVKGRFTISRDNAKNTVYLQLNSLKPEDTAVDYCAKRPIRYYHLLRGNYWGQGTQVTVSS”, the “polyreactivity (PSR sort gate)” value was “low polyreactivity”.

On to “QVQLVESGGGLVQAGGSLRLSCAASGSTFGAYAMGWYRQAPGKEREFVAGISVRGGSTYYADSVKGRFTISRDNAKNTVYLQMNSLKPEDTAVYYCAARRVDTRFHVRYRYYYWGQGTQVTVSS”, for which the “polyreactivity (PSR sort gate)” value is “high polyreactivity”.

Consider “QVQLVESGGGLVQAGGSLRLSCAASGRTFQGYAMGWYRQATGKERELVAAISRSGGRTYYADSVKGRFTISRDNAKNTVYLQMNSLKPEDTAVYYCATDAFRDYGYWGQGTQVTVSS”, for which the “polyreactivity (PSR sort gate)” value is on record as “high polyreactivity”.

In the case of “QVQLVESGGGLVQAGGSLRLSCAASGSIFRVYAMGWYRQAPGKERELVAVGSTYYADSVKGRFTISRDNAKNTVYLQMNSLKPEDTAVYYCARRGKSRYSYHYWGQGTQVTVSS”, the “polyreactivity (PSR sort gate)” value is reported as “high polyreactivity”.

Regarding “QVQLVESGGGLVQAGGSLRLSCAASGFTLPLYAMGWYRQAPGKERELVATISSGGTTYYADSVKGRFTISRDNAKNTVYLEMNCLKPEDTGVYYCAAGGTFFHRFYYYYRSDYWGQGTQVTVSS”, the “polyreactivity (PSR sort gate)” value is on record as “high polyreactivity”.
